According to patent US20160169885A1:

What was measured:
[1] = biological target: Ac-N-Asp-Gly-Asp-Ala-Gly-Tyr-Ala-Gly-Leu-Arg-Gly-Ala-Gly-diamino-ethyl-Bodipy FL; test: cell-based or functional assay
[2] = tested on: Ac-N-Asp-Gly-Asp-Ala-Gly-Tyr-Ala-Gly-Leu-Arg-Gly-Ala-Gly-diamino-ethyl-Bodipy FL

Row | detection limit of the cleavage products in whole rat blood (reaction in 1×PBS, then mixed with inhibitor-treated blood), agarose gel [1] [nM] | Substance | cleavage of the substrate, agarose gel electrophoresis, 1×PBS [2]
1 | 50 | bovine pancreatic trypsin (from UniProt P00760 24-246) (enzyme) | –
2 | – | bovine pancreatic α-chymotrypsin | after cleavage by α-chymotrypsin, migrates as two bands toward the cathode, representing a primary ... and a secondary ... α-chymotrypsin cleavage product
